Key:
SF162 gp120 = molecular target: T1, SF162 gp120 (HIV-1 SF162, UniProt P19550 32-502); assay: 125I-MIP-1β competition on activated CD4+ T cells
T1 construct: domain: gp120; also called SF 162 (B)
Protocol: (§1) PBMCs were isolated from blood donors by Ficoll-Hypaque centrifugation, and stimulated for 2-3 days with phytohaemagglutnin (5 μg ml⁻¹) and IL-2 (100 U ml⁻¹) (Roche). CD4⁺ T cells were purified from the activated PBMCs by positive selection using anti-CD4 immunomagnetic beads (Dynal Inc.). […] The cells were screened for CCR-5-defective alleles(14), and only cells from wild-type donors were used (except when specified).
(§2) Unlabelled ligand or gp120 (mixed with monoclonal antibodies when appropriate) was added to the cells immediately before radiolabelled ligand was added. Anti-CD4 monoclonal antibodies were added to the cells simultaneously with gp120. These cells were then separated from unbound ligand by centrifugation (60 s, 14, 000 g) through oil (80% silicone oil, Aldrich; 20% mineral oil, Sigma), and the radioactivity in the cell pellet was determined by gamma counting. […] Each experiment was repeated at least twice using cells from different donors.

soluble CD4 = molecular target: T2, soluble CD4 (UniProt P01730 26-394); assay: 125I-MIP-1β competition on activated CD4+ T cells
T2 construct: also called sCD4
Protocol: as §1, §2

B1: chemokine receptor C-C CKR-5 (human) (receptor)
chain: not shown
notes: whole, on cells; also called CCR-5; CCR5
- binding result (SF162 gp120): binds
- binding result (soluble CD4): no binding (tested: 50 µg ml^-1)

— patent publication US20040086528A1 (PROGENICS PHARMACEUTICALS, published 2004)
